This is an account of results in article PMC3553987.

Data set [1] concerns U-STAT1 (unphosphorylated STAT1) (human). Briefly: EMSA.
The target in data set [2] is T1, c-Myc;Max isoform (human;human) (UniProt P01106+P61244). Kind of data set: TIRF-PBM. The following applies: 5' amino on one strand, coupled to hydrogel.
The target in data set [3] is T1, c-Myc;Max isoform (human;human). Kind of data set: TIRF-PBM. The following applies: 5' amino on one strand, coupled to hydrogel. The source holds these as a separate data set.
The subject of data set [4] is P-STAT1 (phosphorylated STAT1) (human). Kind of data set: TIRF-PBM. The following applies: 5' amino on one strand, coupled to hydrogel.

T1 sequence (P01106 16-454, chain 1 of 2): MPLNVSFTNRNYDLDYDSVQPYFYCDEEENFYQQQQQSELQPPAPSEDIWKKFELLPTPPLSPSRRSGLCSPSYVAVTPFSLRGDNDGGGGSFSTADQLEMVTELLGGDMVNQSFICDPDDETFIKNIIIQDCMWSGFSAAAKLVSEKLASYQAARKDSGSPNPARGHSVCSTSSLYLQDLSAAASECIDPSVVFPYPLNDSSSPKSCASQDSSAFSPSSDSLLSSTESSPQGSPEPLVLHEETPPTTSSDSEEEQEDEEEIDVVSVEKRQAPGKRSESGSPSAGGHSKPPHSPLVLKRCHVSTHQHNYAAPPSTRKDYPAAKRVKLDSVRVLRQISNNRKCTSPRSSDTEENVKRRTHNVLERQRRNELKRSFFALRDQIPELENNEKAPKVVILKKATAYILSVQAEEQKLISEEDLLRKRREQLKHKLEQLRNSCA
T1 sequence (P61244 2-160, chain 2 of 2): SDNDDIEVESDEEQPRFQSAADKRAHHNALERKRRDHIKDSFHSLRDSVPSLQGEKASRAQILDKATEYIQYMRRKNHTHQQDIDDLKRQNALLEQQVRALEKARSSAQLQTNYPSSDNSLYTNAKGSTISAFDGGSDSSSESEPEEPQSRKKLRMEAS

In turn, GAS cognate DNA (EMSA) came in with a binding signal (fold lower affinity than P-STAT1) in data set [1] of more than 200.

As for “Myc/Max cognate E-box DNA (probe number not given)”, the results for the Kd in data set [2] and in data set [3] were 0.9 nM and 3.6 nM, respectively. Take sequence 70 (optimal GAS, spacer CCG): the Kd in data set [4] is 3.4 nM.
